The labels stand for the following.
B1: ADI-10159 IgG (antibody, V domains shown)
VH: EVQLVESGGGLVQPGGSLRLSCAASGFTFSSYGMSWVRQAPGKGLEWVANIKQDGSEKYYVDSVKGRFTISRDNAKNSLYLQMNSLRAEDTAVYYCAREGGPYYDSSGYFVYYGMDVWGQGTTVTVSS
VL: DIQMTQSPSTLSASVGDRVTITCRASQSISSWLAWYQQKPGKAPKLLIYDASSLESGVPSRFSGSGSGTEFTLTISSLQPDDFATYYCQQYESFPTFGGGTKVEIK
notes: IgG; also called Ab1; G59
B2: ADI-10159 Fab (Fab, V domains shown)
VH: B1 VH
VL: B1 VL
notes: Fab fragment; also called Ab1; G59
B3: ADI-11819 Fab (Fab, V domains shown)
VH: EVQLVESGGGLVKPGGSLRLSCAASGFTFSSYAMSWVRQAPGKGLEWVSSISSSSEGIYYADSVKGRFTISRDNAKNSLYLQMNSLRAEDTAVYYCAREGGPYYDSSGYFVYYGMDVWGQGTTVTVSS
VL: B1 VL with Q27N, D50E, L54T, E55K, E92D, S93D, F94L
notes: Fab fragment; also called Ab8
B4: ADI-11815 Fab (Fab, V domains shown)
VH: QVQLVQSGAEVKKPGASVKVSCKASGYTFGTYYMHWVRQAPGQGLEWMGIINPSRGSTVYAQKFQGRVTMTRDTSTSTVYMELSSLRSEDTAVYYCARGAGYDDEDMDVWGKGTTVTVSS
VL: DIQMTQSPSSVSASVGDRVTITCRASQGIDSWLAWYQQKPGKAPKLLIYAASSLQSGVPSRFSGSGSGTDFTLTISSLQPEDFATYYCQQAHSYPLTFGGGTKVEIK
notes: Fab fragment; also called Ab7
B5: ADI-10161 Fab (Fab, V domains shown)
VH: EVQLVESGGGLVQPGGSLRLSCAASGFTFSSYWMSWVRQAPGKGLEWVANINQDGSEKYYVDSVKGRFTISRDNAKNSLYLQMNSLRAEDTAVYYCAREGGDSWYHAFDIWGQGTMVTVSS
VL: B4 VL with D30S, S53N, A91K, H92L, Y94L
notes: Fab fragment; also called Ab16
B6: ADI-11812 Fab (Fab, V domains shown)
VH: B4 VH with G30E, T31I, R55S
VL: B4 VL
notes: Fab fragment; also called Ab24
B7: ADI-10164 Fab (Fab, V domains shown)
VH: QVQLQESGPGLVKPSETLSLTCAVSGYSISSGYYWGWIRQPPGKGLEWIGSIYHSGSTNYNPSLKSRVTISVDTSKNQFSLKLSSVTAADTAVYYCARLPPWFGFSYFDLWGRGTLVTVSS
VL: EIVLTQSPATLSLSPGERATLSCRASQSVSSYLAWYQQKPGQAPRLLIYDASNRATGIPARFSGSGSGTDFTLTISSLEPEDFAVYYCQQVDNYPPTFGGGTKVEIK
notes: Fab fragment; also called Ab18
B8: ADI-10157 Fab (Fab, V domains shown)
VH: QVQLQESGPGLVKPSETLSLTCTVSGGSISSYYWSWIRQPPGKGLEWIGSIYYSGSTNYNPSLKSRVTISVDTSKNQFSLKLSSVTAADTAVYYCARVGGVYSTIETYGMDVWGQGTTVTVSS
VL: EIVMTQSPATLSVSPGERATLSCRASQSVSSNLAWYQQKPGQAPRLLIYGASTRATGIPARFSGSGSGTEFTLTISSLQSEDFAVYYCQQYTVYPPTFGGGTKVEIK
notes: Fab fragment; also called Ab13
B9: ADI-11835 Fab (Fab, V domains shown)
VH: QLQLQESGPGLVKPSETLSLTCTVSGGSISSTDYYWGWIRQPPGKGLEWIGSIGYSGTYYNPSLKSRVTISVDTSKNQFSLKLSSVTAADTAVYYCARETAHDVHGMDVWGQGTTVTVSS
VL: EIVLTQSPATLSLSPGERATLSCRASHSVYSYLAWYQQKPGQAPRLLIYDASNRATGIPARFSGSGSGTDFTLTISSLEPEDFAVYYCQQYDNLPTFGGGTKVEIK
notes: Fab fragment; also called Ab10; 135 (so in the source)
B10: ADI-10160 Fab (Fab, V domains shown)
VH: EVQLVESGGGLVQPGGSLRLSCAASGFTFSSYWMSWVRQAPGKGLEWVANINQDGSEKYYVDSVKGRFTISRDNAKNSLYLQMNSLRAEDTAVYYCAREANYYGNVGDDYWGQGTLVTVSS
VL: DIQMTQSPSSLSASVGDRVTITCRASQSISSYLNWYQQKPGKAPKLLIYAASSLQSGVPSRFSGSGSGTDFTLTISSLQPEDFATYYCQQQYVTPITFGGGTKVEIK
notes: Fab fragment; also called Ab15
B11: ADI-11825 Fab (Fab, V domains shown)
VH: B10 VH with S30G, S31G, K58E
VL: DIQMTQSPSSLSASVGDRVTITCRASQSIYNYLNWYQQKPGKAPKLLIYAASNLHSGVPSRFSGSGSGTDFTLTISSLQPEDFATYYCQQAFHVPITFGGGTKVEIK
notes: Fab fragment; also called Ab25
B12: ADI-11807 Fab (Fab, V domains shown)
VH: EVQLVESGGGLVQPGGSLRLSCAASGFTFGSYWMSWVRQAPGKGLEWVATIKQDGSEKSYVDSVKGRFTISRDNAKNSLYLQMNSLRAEDTAVYYCARPLNAGELDVWGQGTMVTVSS
VL: DIQMTQSPSTLSASVGDRVTITCRASQSISSWLAWYQQKPGKAPKLLIYEASSLESGVPSRFSGSGSGTEFTLTISSLQPDDFATYYCQQSQSYPPITFGGGTKVEIK
notes: Fab fragment; also called Ab5; I07
B13: ADI-11809 Fab (Fab, V domains shown)
VH: B12 VH with G30P, Q53R, S59G
VL: B12 VL
notes: Fab fragment; also called Ab6
B14: ADI-11828 Fab (Fab, V domains shown)
VH: EVQLVESGGGLVQPGGSLRLSCAASGFTFSSYWMSWVRQAPGKGLEWVANINQDGSEVYYVDSVKGRFTISRDNAKNSLYLQMNSLRAEDTAVYYCARDVGPGIAYQGHFDYWGQGTLVTVSS
VL: B11 VL with N31Y, N53S, L54R, H55Q, A91V, F92Y, H93D, V94T, I96L
notes: Fab fragment; also called Ab27
B15: ADI-11830 Fab (Fab, V domains shown)
VH: B14 VH with Q53T
VL: B11 VL with S28V, N31S, N53S, H55K, A91V, F92Y, H93D, V94T, I96L
notes: Fab fragment; also called Ab9
B16: ADI-11839 Fab (Fab, V domains shown)
VH: QVQLVQSGAEVKKPGASVKVSCKASGYTFSNYYMHWVRQAPGQGLEWMGWINPFSGGTRYAQKFQGRVTMTRDTSTSTVYMELSSLRSEDTAVYYCARDVGSSAYYYMDVWGKGTTVTVSS
VL: B4 VL with R24E, Q27K, D30S, S53D, H92F, S93L, Y94F, L96P
notes: Fab fragment; also called Ab28
B17: ADI-11802 Fab (Fab, V domains shown)
VH: QVQLVQSGAEVKKPGASVKVSCKASGYTFSGYYMHWVRQAPGQGLEWMGMINPYGGSTRYAQKFQGRVTMTRDTSTSTVYMELSSLRSEDTAVYYCAREAADGFVGERYFDLWGRGTLVTVSS
VL: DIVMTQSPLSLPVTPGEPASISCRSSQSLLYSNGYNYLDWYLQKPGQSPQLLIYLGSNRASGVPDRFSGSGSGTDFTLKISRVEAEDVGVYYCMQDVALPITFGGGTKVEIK
notes: Fab fragment; also called Ab23

Positions count from the first letter of the chain named.

One assay addresses T1, human CD33 (antigen of the BLI measurement, Table 11) (human, UniProt P20138 18-259, limits assumed).
T1 construct: 100 nM antigen in solution; construct not described; whole entry named
Description: BLI, IgG on AHC.
B1: the affinity, expressed as Kd, was 0.58 nM and the off-rate (koff) came out at 0.0002 s⁻¹.

In the next assay the target is T2, Human CD33 R69G (human, UniProt P20138 18-259). In words: SPR captured Fab.
Turning to B2, the Kd is 5.68 nM, the koff turned out to be 0.00243 s⁻¹ and the kon worked out at 426000 M⁻¹ s⁻¹.
Taken in the same sequence, the figures for B3 were 0.09 nM, 0.000244 s⁻¹ and 2.78e+06 M⁻¹ s⁻¹.
Taken in the same sequence, the figures for B4 were 4.34 nM, 0.0013 s⁻¹ and 300000 M⁻¹ s⁻¹.
On the same counts, the results for B5 are 48.9 nM, 0.0307 s⁻¹ and 629000 M⁻¹ s⁻¹.
The molecule B6 had a Kd of 6.74 nM, a koff of 0.00228 s⁻¹ and a kon of 338000 M⁻¹ s⁻¹.
Taken in the same sequence, the figures for B7 were 113 nM, 0.035 s⁻¹ and 308000 M⁻¹ s⁻¹.
Take B8: the Kd turned out to be 17.8 nM, the off-rate (koff) stood at 0.0287 s⁻¹ and the kon was determined as 1.56e+06 M⁻¹ s⁻¹.
On the same counts, the results for B9 are 0.67 nM, 0.00205 s⁻¹ and 3.07e+06 M⁻¹ s⁻¹.
On the same counts, the results for B10 are 63.7 nM, 0.0533 s⁻¹ and 836000 M⁻¹ s⁻¹.
Taken in the same sequence, the figures for B11 were 3.74 nM, 0.00695 s⁻¹ and 1.86e+06 M⁻¹ s⁻¹.
As for B12, the dissociation constant (Kd) is 0.43 nM, the koff amounted to 0.000259 s⁻¹ and the on-rate (kon) was determined as 597000 M⁻¹ s⁻¹.
Molecule B13 came in with a Kd of 0.22 nM, a koff of 0.000179 s⁻¹ and a kon of 815000 M⁻¹ s⁻¹.
With B14, the Kd was 6.03 nM, the koff is 0.007 s⁻¹ and the kon was 1.16e+06 M⁻¹ s⁻¹.
On the same counts, the results for B15 are 2.94 nM, 0.00663 s⁻¹ and 2.27e+06 M⁻¹ s⁻¹.

The next assay deals with Human CD33 S128N (human, UniProt P20138 18-259). In words: SPR captured Fab.
B5: the Kd turned out to be 63.6 nM, the koff was 0.0385 s⁻¹ and the kon was 605000 M⁻¹ s⁻¹.
In turn, B16 registered a Kd of 29.5 nM, a koff of 0.0284 s⁻¹ and a kon of 963000 M⁻¹ s⁻¹.
Taken in the same sequence, the figures for B6 were 2.01 nM, 0.00112 s⁻¹ and 556000 M⁻¹ s⁻¹.
Taken in the same sequence, the figures for B7 were 279 nM, 0.0539 s⁻¹ and 193000 M⁻¹ s⁻¹.
As to B8, binding was characterised by a dissociation constant (Kd) of 163 nM, the off-rate (koff) came out at 0.00924 s⁻¹ and the kon is 56500 M⁻¹ s⁻¹.
Taken in the same sequence, the figures for B17 were 0.809 nM, 0.00059 s⁻¹ and 662000 M⁻¹ s⁻¹.
On the same counts, the results for B10 are 85.7 nM, 0.0673 s⁻¹ and 786000 M⁻¹ s⁻¹.
Molecule B11 gave a Kd of 3.09 nM, a koff of 0.00649 s⁻¹ and a kon of 2.1e+06 M⁻¹ s⁻¹.
On the same counts, the results for B14 are 5.41 nM, 0.00742 s⁻¹ and 1.37e+06 M⁻¹ s⁻¹.

The target of a further assay is T2, Human CD33 R69G. In words: SPR captured Fab. This is another data set of the same source.
With B4, the affinity, expressed as Kd, was 4.34 nM; the koff came to 0.0013 s⁻¹; the kon came to 300000 M⁻¹ s⁻¹.

For orientation: Kd means the free concentration of one partner at which half of the binding sites on the other are occupied at equilibrium, for simple one-to-one binding. A high value points to lower affinity. By koff is commonly meant the rate constant with which the complex falls apart. A word on the kon: it is a measure of how fast the partners come together. A high value points to fast association.

Values taken from patent US20250154261A1 (published 2025).
